Experimental data reported in PMC4948710.

Experiments:
[1] = target: Nematostella vectensis β-catenin, full length (Nematostella vectensis); experiment: ITC
[2] = target: F-actin polymerised from chicken muscle G-actin (chicken) (UniProt P68139); experiment: co-sedimentation

Kd [1] | Kd [2] | Substance
1.3 nM | – | Nematostella vectensis Cadherin-2 cytoplasmic region (domain or fragment)
– | 800 nM | Nematostella vectensis α-catenin, full length (natural protein)
– | > 12000 nM | Nematostella vectensis α-catenin lacking the insert (residues 638-1,021 deleted) (domain or fragment)
7.9 nM | – | Nematostella vectensis Cadherin-1 cytoplasmic region (domain or fragment)
